Test results from patent US20170363644A1 (ROCKEFELLER UNIVERSITY, published 2017).
Where no end group is shown, it is not given here.

Molecular target: T1, factor XII (FXII) (human, UniProt P00748 20-615)
T1 construct: Endogenous FXII in human plasma in the pulldown; purified FXII in the chromogenic assay; also called FXII zymogen
T1 sequence (looked up): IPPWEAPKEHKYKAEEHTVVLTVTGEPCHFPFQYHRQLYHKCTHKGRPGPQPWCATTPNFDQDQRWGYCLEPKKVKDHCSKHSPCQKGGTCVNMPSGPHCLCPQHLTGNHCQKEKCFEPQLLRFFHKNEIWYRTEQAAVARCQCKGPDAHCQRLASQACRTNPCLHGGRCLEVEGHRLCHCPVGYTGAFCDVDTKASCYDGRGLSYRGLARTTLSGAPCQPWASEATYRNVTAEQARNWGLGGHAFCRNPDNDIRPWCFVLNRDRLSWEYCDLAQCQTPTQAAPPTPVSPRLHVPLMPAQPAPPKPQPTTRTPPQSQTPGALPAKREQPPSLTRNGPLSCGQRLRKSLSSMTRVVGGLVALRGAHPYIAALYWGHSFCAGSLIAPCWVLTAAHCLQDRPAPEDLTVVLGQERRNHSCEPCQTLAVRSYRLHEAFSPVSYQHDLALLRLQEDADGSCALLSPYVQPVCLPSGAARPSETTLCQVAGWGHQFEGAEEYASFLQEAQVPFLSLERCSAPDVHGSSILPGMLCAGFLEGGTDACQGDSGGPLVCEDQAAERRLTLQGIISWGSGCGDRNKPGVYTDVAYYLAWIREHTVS
Assay: streptavidin bead pulldown from human plasma, Western blot for FXII

binding result: no binding (tested: 500 Nm)
B1: biotinylated amylin (peptide, UniProt P10997 34-70, looked up)
peptide: KCNTATCATQRLANFLVHSSNNFGAILSSTNVGSNTY
modifications: ends and bridges not checked; also: biotinylated (site not given here)
notes: Control aggregating peptide in the pulldown
